Test results as given in a protein production outcome set (Wang et al. 2014).

Test: label from the status in PepcDB records

Question: With “MSLNGKTMFISGASRGIGLAIAKRAAQDGANIALIAKTAEPHPKLPGTVYTAAKELEEAGGQALPIVGDVRDPESVEAAVAKTVEQFGGIDICVNNASAINLGPITEVPMKRFDLMNGIQVRGTYAVSQACIPHLKGRENPHILTLSPPVLLGKEWLKPTAYMMAKFGMTLCALGIAEEMREAGIASNTLWPRTLVATAAVQNLLGGDEAMGRARKPEVYSDAAYVILNKPAREFTGNMLLCEDVLVESGVTDLSVYNCVPGSQLGVDFWVDGVNPPGYTGP” as the sequence, how does the protein production read?
Answer: failed

Question: Which protein production does the source give for “MSLNIEEWEEYRYVEAGIKESITLIEDPGLKKMVEHVCHSGGKRIRPIILLLVSEICSGSYSRSLNAALAVEMMHSASLIHDDLLDQGLVRRNLPSAPEKFGPSGALLCGDYLIAKSIAFISPYGEKVIQDFGKAGMDMAEGEVLDLKLEDESFGENDYFKCIYKKTASLFAISASIGAYTGGAEEELAERFSHFGNALGTAYQIVDDILEFLEVVEGKESKFTSETLPHIYMKSTSKEEALKKSIDCVKLHVAAAKETLETFRECPARDKLFQITDYITVDMLENLEGHHHHHH” here?
Answer: not failed

Question: For “MSLNNQDISIGKLSRLKIWITDNHLSDDQWSNTKKFIIIKITTEDGIEGWGEAFSINFREKGIAIIIKELFREISNIPNLSIKSFYNKISLLSDGHRGLDFSSATSAIEIALWDISGKLKNLPLNSLLTKSPKPNVPIYATCWSDLKKDTNDYLRQIEKFYGKKYGGIKIYPMLDSLSISIQFVEKVREIVGDELPLMLDLAVPEDLDQTKSFLKEVSSFNPYWIEEPVDGENISLLTEIKNTFNMKVVTGEKQSGLVHFRELISRNAADIFNPDISGMGGLIDIIEISNEASNNGIFISPHCWNSMSVSASAMLHVCSSIPNSEKAEIFPDYINFSKKFCELPFDIIDNKAHINKSAGLGIVIHEDILSELSIYSLDEKSNDEGHHHHHH”, which protein production is on record?
Answer: not failed

Question: For “MSLNRFTKTSQGRSWNTGNGSPDAICFAVDKPGIVVVGFAVYGGGGIHEYELEVLVDDSEHAGDSTHSHRWTSLELVKGTYTTDDSPSDIAEIRLDKVVPLKENVKYAVRLRNYGSRTANGDGGMTTVQCPDGVTFTFSTCSLSSNGTNQTRGQIPQILYYRSEEGHHHHHH”, which protein production is on record?
Answer: not failed

Question: For “MSLPISLTDFFPIQGGMATRMVIEGANFGTDLSQIKVFFNQKEASILNVKNSIIYLLVPKLPGNDCIVTVKVGNQEARFTRNFQYIENYSVTTIAGQPGTNLFVEGTLAAAQFGPVQHLAIDDENNLFITERNGSDGKGTCSVLNEESGTVTFLFKASDNLNVPTVNAQTQNVYIPLDGGYTFYELNPVNQWIAKSRLVLHPSKEQQEAGMDDFEINWKHSLAFSRYDNMIYTRSYGGDLIKVDPETRVGQKIGNFFPNTDSFIVAHPTQPEILYIAYAAKHVIYTYNIETGEHKLFAGAFGQSGWNDGIATDAEFNSPRQMSLDMEGNIYIADSGNHCIRMIDKNGIVTTPIGQPGEAGYADGSPDMALLNDPRGVAVNSEGDVYIADLGNRCIRKLTLQLEHHHHHH”, which protein production is on record?
Answer: not failed

Question: Which protein production does the source give for “MSLQLLIAQVLLLLLGSLGISAAAPDLIVKHGLRALLAVALTFAVARIRPRTLLKWGTNVWIVALVLLVLVLFIGQGSQDSPGVRRWLSIAGQEFQPSEFAKLALVLQLASFFSRRGVQNKLLSATGMIIATTALVIFEPDLGTSVLTFGLGIIVMYAAGVRLFNIGGLVLALGLFSLPFVNSYLESHPYILKRWTGHQVRDDGVVTGLDQIGMAHRDLNYGGWWGQGPDGPRWEYFAAHTDMVVAAVGFSSGLLGVLTLLFAYWLIVSTALQVAQLATRIRPMSAEIHGASILAIGCMFLVVGQAFVNLAVAAGLFPVTGVPLPLVSYGFSSMLTMSVALGIIHSAMREVRRQLPVEVKMDDFVGAAADD” here?
Answer: failed

Question: With “MSLRARIHSPEEHGSRGEDGHLVASYRAKLLEEIDLAEMSALATAERRARLERVLGHIISREGPVLSTVERSQLIRRVVDEALGLGILEPLLEDASITEIMVNGPDAIFVERAGRVEQLPLRFASHDQLMQTIERIVSTVNRRVDESNPMVDARLPSGERVNVIIPPLSLTGATLTIRRFPRSFTLQELIGLGSLDENMLYLLAGLVQARFNIIVSGATGTGKTTLLNALSGLIPESDRIITIEDSAELQLQQAHVIRLESRPPNVEGQGRITIRDLVRNSLRMRPDRIVVGEVRGGESLDMLQAMSTGHDGSLATVHANSAEDALMRLQTLASMSDVEIPFVALHDQINSSVDVLIQLTRFADGARRITEIALLASHGGEPYRLATVARFNARPMSADGRVVGAYEYHPLPHRTAERLYMAGQPIPQAFGVAHTPDQLTTREAR” as the sequence, how does the protein production read?
Answer: failed

Question: Which protein production does the source give for “MSLRGELRVGLEPGYLPFEMKDKKGNVIGFDVDLAREMAKAMGVKLKLVPTSWDGLIPGLVTEKFDIIISGMTISQERNLRVNFVEPYIVVGQSLLVKKGLEKGVKSYKDLDKPELTLVTKFGVSAEYAAKRLFKNAKLKTYDTEAEAVQEVLNGKADMFIFDLPFNVAFMAQKGQGYLVHLDTSLTYEPLGWAIKKGDPDFLNWLNHFLAQIKHDGSYDELYERWFVDTKWLEKIQEGHHHHHH” here?
Answer: not failed

Question: For “MSLRLADFGFTDGINEIIAITENEDGSWNAAPIGIIVEDSSSDTAKAKLYRNRTRANLERSGVLFANVTDDALVFAVSSFGNLNDDWYASPNPPIIKGAMAWCRFEAEMRSGVAHLKLTDGEIIEKRVRAINRGLSAVIEALVHATRYVAIKSDERRKELLERIHYYREIVQKCGSEREKRAFEIIMEKIGEGHHHHHH”, which protein production is on record?
Answer: not failed

Question: Which protein production does the source give for “MSLRVILFDLDGTLIDSAKDIALALEKTLKELGLEEYYPDNVTKYIGGGVRALLEKVLKDKFREEYVEVFRKHYLENPVVYTKPYPEIPYTLEALKSKGFKLAVVSNKLEELSKKILDILNLSGYFDLIVGGDTFGEKKPSPTPVLKTLEILGEEPEKALIVGDTDADIEAGKRAGTKTALALWGYVKLNSQIPDFTLSRPSDLVKLMDNHIVEFEGHHHHHH” here?
Answer: not failed

Question: With “MSLSAMPAALSFAGLAGWAEEDHLAALNAFRAGCGVSKDPAAARVCGLAKATKDLDVSGAKAFIEANFRVEAVDGGGDGLLTAYFAPQYEARMSRNAEFSAPLRGLPADLVVLDLGPFEPALVGKKITGHVEGSTFVPYPDRAEIEATPSDKPLAWMRPEELFFLQIQGSGVLVLPDGRRVRAVFAGTNGKPFVGIAIAMRDKGLLPDNNTSADAIRTWLAEHRGPEADAIMRLNPRYVFFRTVPDDGKEPAGAAGVALPPGRAIAVDPGYHAYGGFYWLDAAAPKLVGAFPVYRRAVTALDTGGAIKGEVRADLYMGSGAVAGVEAGRVRHTLRLYRLTPNPEGHHHHHH” as the sequence, how does the protein production read?
Answer: not failed

Question: Which protein production does the source give for “MSLSDDSTFGDATFVVLDFETTGLDPQVDEIIEIGAVKIQGGQIVDEYHTLIKPSREISRKSSEITGITQEMLENKRSIEEVLPEFLGFLEDSIIVAHNANFDYRFLRLWIKKVMGLDWERPYIDTLALAKSLLKLRSYSLDSVVEKLGLGPFRHHRALDDARVTAQVFLRFVEMMKKEGHHHHHH” here?
Answer: not failed

Question: For “MSLSEYRRKRSFDKTREPEPGKTLPPGQRAIFVVQLHHASRRHYDFRLQVGDALKSWAVPKGPSYDPKVKRMAVEVEDHPVDYASFEGEIPRGEYGGGHVAQFDHGVWATAGDPEAQLAKGHLRFELFGNKLKGGWHLVRSGKPARQPQWLLFKEDDAYAGTLEADDLLADVAATPADDVRRAGAGKTQRKGLTTVPPPAAKKRGTWAKQALALSGARRAEMEDAPFAPQLAKLVQSPPEGAQWLHEIKWDGYRILATVTNGKVRLWSRNALEWTDKTPEIADAIQSLGLRNAQIDGELIAGRGTKEDFNLLQATLSGERQVPLALAVFDLLHVDGVDISEAPLRERKQLLQQVLQAAPHMHLAYSSHVEGDGTEAFRVAGEQHFEGIISKRADRPYRDGRSDDWRKTKQLASQEYAVVGYTAPKGSRSGFGSLLLATPDPVHGWLYVGRVGSGFSDALMREVTQQLEGGGRKPTAHIPTPDTDLRGATWFAPRFVVEVFYRGIGGQQLLRQASFKALRPDKRIADLADSDAGNGRSTSSSTQRSAKTRAAKNAATQVAKRAATRATAPARKSAVATPSSAALPTLSSPTKLIYPDIRATKGDVWDYYQAVMDHLLPQIVGRPLSIIRCPSGAEKPCFFQKHHTAGLERVSSVKLTEETGTNAYYLVIEDAPGLLELVQFNALEFHPWGSHADRPDVADRVVFDLDPGPDVPFAEVKRAANDIRKLLAQLELESFLRVSGGKGLHVVVPLNPGCDWEVTKRFAKGFADALAQAEPQRFIATATKRLRNKRIFVDYLRNGRGATAVASYPLRGRPGAPVALPLAWSDLSKLQRADAFTLRDVPEKLRRRRKDPWADMDRIRQNLARWAEQDED”, which protein production is on record?
Answer: failed

Question: For “MSLSFTPLHTTSEAFIEKALPWLEDRYFHIAYLNPNGYTAYPQGAFRHYLAFGSEAAIHVSDATRVFETWNEIKKGYTNEWIFVFASYDGKNSVEQLHTSKEAGIAFAAATFFIPEHVWEIQPDGILIHKGSGSSLVTEIQHAEPSTPVQQSDIFVKQVVSKESYFNAFDELQQIIAQGDAYEINYCIPFTAKGNISPAATYQRLNKKTPMPFSVYYKFNTEYILSASPERFIKKTGDTIISQPIKGTSKRGKSKAEDEMLKQQLGTSEKEQSENTMIVDLVRNDLSRTAVAGSVCVPELSGLYTFPNVHQLISTVQSTIDPACSSIDVIQQAFPMGSMTGAPKVNVMKFIDRIESMARGPFSGTVGYMDPHDNFDFNVLIRSIFYNSATQELFMEAGSAITSYAKAETEYEECLLKITPMIHILNNQEGHHHHHH”, which protein production is on record?
Answer: not failed

Question: With “MSLSGTDIHTSDYYFLFEEKFRGSRELVKARLRRYIPYFKGCRRVLDIGCGRGEFLELCKEEGIESIGVDINEDMIKFCEGKFNVVKSDAIEYLKSLPDKYLDGVMISHFVEHLDPERLFELLSLCYSKMKYSSYIVIESPNPTSLYSLINFYIDPTHKKPVHPETLKFILEYLGFRDVKIEFFEECEELTKLAKIDSNTVSEEVIRVINENIEKLNRILFGPQDYAIIAKKEGHHHHHH” as the sequence, how does the protein production read?
Answer: not failed

Question: For “MSLSIVSYYGSQQSKCGYCAGANCSLSHGMHAYQLDCRDYQDLIDRGWRRCGYYCYKLRNQETCCPCYTIKCNGLEFKLSKSNKRILRRINRFLRDGKRESKPEAGDGDGEADADYAIVAPEVTASEPQPQLPDKSPPVINVEQVASLATAQRKPTKQATAAAVEAPTLGSNKSSLLSSSAAAPISNKPCKKAKQMRLDRRLAKLGDSASYSTKSLTQEKTLRDFLNTDSETNKHRLKLRLIHVYDDEFRRTLPQSFALYKKYQISIHNDPPKDQDAYKEHLQATPLQNEKPWDGPEMGYGSFHQQYWLDDKLIAVGVIDILPGCVSSVYFFYDPDYSFLSLGTYGSLREIELVQSLAEKVPSLKYYYMGFYIHSCPKMRYKGKLSPSYLLCPETYEWLPLTDVIRAKLDEHKYQRLNEDPAARDVNEFLMEHLDEVKLLLGGRTRTDYKHFRQLRGTVSDDDIIIEYSKLVGKECARRMLYVK”, which protein production is on record?
Answer: failed

Question: Which protein production does the source give for “MSLSKDNIWKLLAPLVVMGVMLLIPVPDGMPPQAWHYFAVFVAMIVGMILEPIPATAISFIAVTICVIGSNYLLFDASELADPAFKASKQALKWGLAGFSSTTVWLVFGAFIFALGYEVTGLGRRIALFLVKFMGKRTLTLGYAIVIIDILLAPFTPSNTARTGGTVFPVIKNLPPLFKSFPNDPSARRIGGYLMWMMVISTSLSSSMFVTGAAPNVLGLEFVSKIAGVQISWLQWFLSFLPVGIILLIVAPWLSYVLYKPEVTHSAEVAAWAGGELKNMGRLSRKEWTLIGLVLLSLGLWVFGGKIINATAVGLLAVSLMLALHVVPWKDITRYNSAWNTLVNLATLVVMANGLTRSGFIDWFANTMSTHLEGFSPDATVIVLVLVLVLVLVLVLVLVLVLVLVLVLVLVFYFAHYLFASLSAHTATMLPVILAVGKGIPGVPMEQLCILLVLSIGIMGCLTPYATGPGVIIYGCGYVKSRDYWRLGAIFGVIYIAMLLLVGWPILAMWN” here?
Answer: failed

Question: With “MSLSLLLQQHLSQPWRFLDHTSFGPTFQALQSFAYDDTLCTSIGKSQSPPTLRAWVHHNTVVLGIQDSRLPQIKAGIEALKGFQHDVIVRNSGGLAVVLDSGILNLSLVLKEEKGFSIDDGYELMYELICSMFQDHREQIEAREIVGSYCPGSYDLSIDGKKFAGISQRRIRGGVAVQIYLCVSGSGAERAKMIRTFYDKAVAGQPTKFVYPRIKPETMASLSELLGQPHNVSDVLLKALMTLQQHGASLLTESLSADEWLLYEQHFARISERNEKLLAEEGHHHHHH” as the sequence, how does the protein production read?
Answer: not failed
